# Data published in the nanobody polyreactivity screen of Harvey et al. (2022).
# Test: yeast display, Sf9 membrane polyspecificity reagent, FACS + sequencing; frameworks hold sequencing errors
# Procedure, shortened: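 Genes from sorted yeast were amplified by colony PCR, read by MiSeq 2 × 250 sequencing and filtered on CDR length. These cells carried a synthetic nanobody library in Saccharomyces cerevisiae BJ5465 and were sorted by FACS into low and high (top ~1%) gates on anti-HA and streptavidin fluorescence. Polyreactivity is labelled according to the gate of origin.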
row,Sequence,polyreactivity (PSR sort gate)
1,QVQLVESGGGLVQAGGSLRLSCAASGITFVRNAKGWYRPAPGTERELVAAISSGGSTYYADSVKGRFTISRDNAKNTVYLQMNSLKPEDTAVYYCAVLSSWRFSGYDYWGQGTQVTVSS,low polyreactivity
2,QVQLVESGGGLVQAGGSLRLSCAASGITFVRNALGWYRQAPGKEREFVAAISWSGGSTYYADSVKGRFTISRDNAKNTVYLQMNSLKPEDTAVYYCNAGSSYLSRFPLDYWGQGTQVTVSS,high polyreactivity
3,QVQLVESGGGLVQAGGSLRLSCAASGITFVRYAMGWYRQAPGKERELVAAISSGGRTIYADSVKGRFTISRDHANNTVFVHMNSLKPEDTAVYYCSKRRARSGQDYDYWGQGTQVTVSS,low polyreactivity
4,QVQLVESGGGLVQAGGSLRLSCAASGITFVRYAMGWYRQAPGKERELVAAISSGGSTHYADSVKGRFTISRDNAKNTVYLQMNSLKPEDTAVYYCAAQWTESSLYRFGYLGQGTQVTVSS,high polyreactivity
5,QVQLVESGGGLVQAGGSLRLSCAASGITFVSYAMGWYRQAPGKERELVAAISSWSGGTTYYADSVKGRFTISRDNAKNTVYLQMNSLKPEDTAVYYCAAVSFGSYRLGYWGQGTQVTVSS,high polyreactivity
6,QVQLVESGGGLVQAGGSLRLSCAASGITFVWNAMGWYRQAPGKERELVATISRGGVRTYYADSVKGRFTISRDNAKNTVYLQMNSLKPEDTAVYYCAADGSYVHWEYGYWGQGTQGTVSS,low polyreactivity
7,QVQLVESGGGLVQAGGSLRLSCAASGITFVYYAMGWYRQAPGNERELVATIDRSGTSTYYADSVKGRFTISRDNAKNTVVLQMTSLKQEDTAVYDCNAHRYAFYQYYRRMDYWGKGTQVTVSS,high polyreactivity
8,QVQLVESGGGLVQAGGSLRLSCAASGITFVYYDMGWYRQAPGKERELVAAISSDGSTYYADSVKGRFTISRDNAKNTVYLQMNSLKPEDSAVYYCAADYFNYRGYTYLGDYWGQCTQVTVSS,low polyreactivity
9,QVQLVESGGGLVQAGGSLRLSCAASGITFWFNAMGWYRQAPGKERELVAAITSGVDTNYADSVKGRFTISRDNAKNTVYLQMNSLKPEDTAVYYCAAQGGRLKRGRTTSDYWGQGTQVTVSS,low polyreactivity
10,QVQLVESGGGLVQAGGSLRLSCAASGITFWHNTMGWYRQAPGKERELVAAISWTGGRTYYADSVKGRFTISRDNAKNTVNFQMNSLNPEDTAVNYCAADFSWTPSGNYDSWGQGTQVTVSS,low polyreactivity
11,QVQLVESGGGLVQAGGSLRLSCAASGITFWKYAMGWYRQAPGKERELVAAISKSGGSTYYADSVKGRFTISRDNAKNTVYLQMNSLKPEDTAVYYCAAYPQFWYWDYNYWGQGTQVTVSS,high polyreactivity
12,QVQLVESGGGLVQAGGSLRLSCAASGITFWNAMGWYRQAPGKERELVAAITSSGGSTYYADSVKGRFTISRDNAKNTVYLQMNSLKPEDTAVYYCAADYGRTRYDMDYWGQGTQVTVSS,low polyreactivity
13,QVQLVESGGGLVQAGGSLRLSCAASGITFWNNAMGWYRQAPGKERELVATISSNGGRTYYADSVKGRFTISRDNAKNSVYLQMNSLKPEDTAVYYCNAARRAYGYNYWGQGTQVTVSS,low polyreactivity
14,QVQLVESGGGLVQAGGSLRLSCAASGITFWPYAMGWYRQAPGKERELVAAISFIDGSTSYADSVKGRFTISRDNAKNTVYLQMNSLKPEDTAVYYCAAVIPGPSIWLYYYWGQGTQVTVSS,low polyreactivity
15,QVQLVESGGGLVQAGGSLRLSCAASGITFWSNAMGWYRQAPGKERELVAAITSGGNTNYADSVKGRFTISRDNAKNTVYLQMNSLKPEDTAVYYCAKRWTAREPWRKGMGYWGQGTQVTVSS,high polyreactivity
16,QVQLVESGGGLVQAGGSLRLSCAASGITFYDNAMGWDRQAPGKEREFVAAISKSGGNTYYADSVKGRFTISRDNAKNTVYLQMNSLKPEDTAVYYCDARTQAFSRKGYGYWGQGTQVTVSS,high polyreactivity
17,QVQLVESGGGLVQAGGSLRLSCAASGITFYDNAMGWYRQAPGKERELVAAIRSGDSTYYADSVKGRFTISRDNAKNTVYLQMNSLKPEDTAVYYCAARTPWVYYWRFYYWGQGTQVTVSS,high polyreactivity
18,QVQLVESGGGLVQAGGSLRLSCAASGITFYDNAMGWYRQAPGKERELVAGISYDGDSTYADSVKGRFTISRDNAKNTVYLQMNSLKPEDTAVYYCAALGPYDWLWAGDYWGQGTQVTVSS,low polyreactivity
19,QVQLVESGGGLVQAGGSLRLSCAASGITFYDNVMGWYRQAPGKERELVAAITSGGSTNYADSVKGRFTISRDNAKNTVYLQMNSLKPEDTAVYYCAAQPRVDYEFPYRYGYWGQGTQVTVSS,low polyreactivity
20,QVQLVESGGGLVQAGGSLRLSCAASGITFYDYAMGRYRQAPGKERELVAAISGGGITYYADSVKGRFTISRDNAKNTVYLQMNSLKPEDTAVYYCAAVYIAGYGYDYWGQGTQVTVSS,low polyreactivity
21,QVQLVESGGGLVQAGGSLRLSCAASGITFYDYAMGWYRQAPGKERELVAAISFSGSRTYYADSVKGRFTISRDNAKNTVYLQMNCLKPEDTAVYYCATDTQDLHGYSWFDYWGQGTQVTVSS,high polyreactivity

row,Sequence,polyreactivity (PSR sort gate)
1,QVQLVESGGGLVQAGGSLRLSCAASGITFYFYAMGWYRQAPGKERELVAAITSTGTSTYYADSVKGRFTISRDNAKNTVYLQMNSLKPEDSAVYYCAKDQHYPHYQPYWSRYDYWGQGTQVTVSS,low polyreactivity
2,QVQLVESGGGLVQAGGSLRLSCAASGITFYGKAMGWYREAPGKERELGAAITGGGGTNYADSVKGRFTISRDNAKKTVYLQMTSLKPEDTAVYYCNRDYFVWFQRGQYKRGSSWYDNWGQGTQVTVSS,low polyreactivity
3,QVQLVESGGGLVQAGGSLRLSCAASGITFYGNAMGRYRQAPGKEREVVAAISSSGGTTYYADSVKGRFTISRDNAKNTVYLQMNSLKPEDTAVYFCNALHPVVYYGTYFNLRRYDYWGQGTQVTVSS,low polyreactivity
4,QVQLVESGGGLVQAGGSLRLSCAASGITFYGNDMGWYRQAPGKERELVAAISANDGNTYYADSVKGRFTISRDNAKNTVYLQMNSLKPEDTAVYYCAAERYEDYTEYDYWGQGTQVTVSS,low polyreactivity
5,QVQLVESGGGLVQAGGSLRLSCAASGITFYGYAMGWYRQAPGKERELVARISRSGGSTYYADSVKGRFTISRDNAKNTVYLQMNSLKPEDTAVYYCAAGYGPSGYTRYYWGQGTQVTVSS,high polyreactivity
6,QVQLVESGGGLVQAGGSLRLSCAASGITFYKYVMGWYRQAPGKERELVARISKGGGSTYYADSVKGRFTISRDYAKNTVYLQMNSLKPEDTAVYYCNARGGYYVRSSAEYDYWGQGTQVTVSS,high polyreactivity
7,QVQLVESGGGLVQAGGSLRLSCAASGITFYLYALGWYRQAPGKERELVAAISSSGGRTYYADSVKGRFTISRDNAKNTVYLQMNSLKPEDTAVYYCAARRYGVPPTYDYWGQGTQVTVSS,high polyreactivity
8,QVQLVESGGGLVQAGGSLRLSCAASGITFYLYDMGWYRQAPGKERELVASITSDGSTDYADSVKGRFTISRDNAKNTVYLQMNSLKPEDTAVYYCNARVTYAWYRFGRSGDDSWGQGTQVTVSS,low polyreactivity
9,QVQLVESGGGLVQAGGSLRLSCAASGITFYRNAMGWYRQAPGKEMELVAAITWNGGRTYYADSVKGRFTISRDNAKNTVYLQMNSLKPEDTAVYYCAADSGTRNLASYRYYYWGQGTQVTVSS,low polyreactivity
10,QVQLVESGGGLVQAGGSLRLSCAASGITFYRNAMGWYRQAPGKERELVAAITWNGGRTYYADSVKGRFTISRDYAKNTVYLQMNSLKPEDSAVYYCAKRYGSTQSRYVYWGQGTQVTVSS,high polyreactivity
11,QVQLVESGGGLVQAGGSLRLSCAASGITFYRYAMGWYRQAPGKDRELVAVISSGGSTNYADSVKGRFTISRDNAKNTVYLQMNSLKPEDTAVFYCNAVSTRFRVRTSDYWGQGTKVTVSS,high polyreactivity
12,QVQLVESGGGLVQAGGSLRLSCAASGITFYRYAMGWYRQAPGKERELVAAINSSGGNTYYADSVKGRFTISRDNAKNTVYLQMNSLKPEDTAVYYCAADRVSWVKHYYWGQGTQVTVSS,high polyreactivity
13,QVQLVESGGGLVQAGGSLRLSCAASGITFYRYAMGWYRQAPGKERELVAAISASDGSTYYADSVKGRFTISRDHAKNTVYLQMNSLKPEDTAVYYCNARKGYSYGHWGQGTQVTVSS,high polyreactivity
14,QVQLVESGGGLVQAGGSLRLSCAASGITFYRYAMGWYRQAPGKERELVAAISRSGGSTYYADSVKGRFTISRDNAKNTVYLQMNSLKPEDTAGYYCAAYILGNRDGYEYWGQGTQVTVSS,high polyreactivity
15,QVQLVESGGGLVQAGGSLRLSCAASGITFYSNAMGWYRQAPGKERELVATITRGGSTYYADSVKGRFTISRDNAKNTVYLQMNSLKPEDTAVYYCAADYSYRGREYGYWGQVTQVTVSS,low polyreactivity
16,QVQLVESGGGLVQAGGSLRLSCAASGITFYVYTMGWYRQAPGKERELVAAINGSGGSTNYADSVKGRFTISRDNAKNTVYLLMNSLKPEDTAVYYCAADWSLRLYDYWGQGTQVTVSS,low polyreactivity
17,QVQLVESGGGLVQAGGSLRLSCAASGITFYWNDMGWYRQATGKERELVAAIRRTAGSTYYADSVKGRFTISRDNAKNTVYLQMNSLKPEDTAVYYCAASRHFARHRGYYFRYDYWGQGTQVTVSS,high polyreactivity
18,QVQLVESGGGLVQAGGSLRLSCAASGITFYYYAMGWYRQAPGKERELVASISSVGTTYYADSVKGRFTISGDNAKNTFYLEMNSLKPVDTAVYYCAAVDYVRYYPDEFDYWGQGTQVTVSS,low polyreactivity
19,QVQLVESGGGLVQAGGSLRLSCAASGITFYYYAMGWYTQAPGKERELVAAISDNGSRTYYADSVKGRFTISRDNAQNTVYLQMNSLKPEDTAVYYCAAEGSYGYDYWGQGTQVTVSS,high polyreactivity
20,QVQLVESGGGLVQAGGSLRLSCAASGITIFGYAMGWYRQAPRTERELVAAINYSGDSTYYADSVKGRFTISRDNAKNTVYLQMNSLKPEDTAVYYCAADVRPYYSAYRGRYYYWGQGTQVTVSS,high polyreactivity
